# Source: patent US20170218091A1 (AbbVie / Abbott, published 2017)
# B1: AB441 (antibody, V domains shown)
# VH: EVQLVQSGAEVKKPGASVKVSCKASGYTFANYGIIWVRQAPGQGLEWMGWINTYTGKPTYAQKFQGRVTMTTDTSTSTAYMELSSLRSEDTAVYYCARKLFTTMDVTDNAMDYWGQGTTVTVSS
# VL: DIQMTQSPSSLSASVGDRVTITCRASQDISQYLNWYQQKPGKAPKLLIYYTSRLQSGVPSRFSGSGSGTDFTLTISSLQPEDFATYFCQQGNTWPPTFGQGTKLEIKR
# Target: T1, Human recombinant TNFα (rhTNFα) (human, UniProt P01375 77-233)
# T1 construct: Soluble recombinant cytokine added to L929 cells; also called huTNFα; human TNF
# T1 sequence (P01375 77-233 limits assumed): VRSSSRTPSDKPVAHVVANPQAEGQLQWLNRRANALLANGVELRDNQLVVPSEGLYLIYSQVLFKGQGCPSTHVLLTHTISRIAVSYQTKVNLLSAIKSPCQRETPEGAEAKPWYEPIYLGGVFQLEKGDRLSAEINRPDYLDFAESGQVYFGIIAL
# Assay: SPR (BIAcore); antibody captured on a goat anti-huIgG Fc surface, huTNF injected at 25 nM
binder,measurement,value
B1,Stoichiometry,2
